Measured values reported in PMC8906176.

Columns and labels:
Assay in all cases: BLI
C4-AM1 monobody = biological target: C4-AM1 monobody
C12b-AM1 monobody = biological target: C12b-AM1 monobody
C6b-AM2 monobody = biological target: C6b-AM2 monobody
C4-AM2 monobody = biological target: C4-AM2 monobody
C12b-AM2 monobody = biological target: C12b-AM2 monobody

SARS-CoV-2 S protein receptor-binding domain, wild type (B.1.1) (from UniProt P0DTC2) (domain or fragment)
Kd (C4-AM1 monobody): 0.11 nM | Kd (C12b-AM1 monobody): 1 nM | Kd (C6b-AM2 monobody): 0.36 nM | Kd (C4-AM2 monobody): < 0.01 nM | Kd (C12b-AM2 monobody): < 0.01 nM
